From the supplement of paper PMC9732359
± gives the uncertainty stated by the source.

Test: protein stability index of a GFP-peptide fusion (yeast GPS) (PSI 1-4); higher = more stable; sorted into four equal gates, so the index is relative within each strain
Summary of the method: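 Sequencing reads from sorted gates were used to score each peptide. The library consisted of tiled 17-residue yeast protein peptides fused downstream of GFP on a Cherry-expressing plasmid, pooled and carried in yeast. Mid-log cultures in leucine-free medium were split into four equal gates by GFP/Cherry ratio, and each gate's plasmids were PCR-amplified and Illumina-sequenced. The protein stability index adds up, over all gates, the read frequency multiplied by the gate number.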

| Sequence | protein stability index (doa10∆) | protein stability index (pdr5∆) | protein stability index (san1∆) | protein stability index (ubr1∆) |
| --- | --- | --- | --- | --- |
| NVNKKALGQDTEKMEEQ [MED11] | 2.88 ± 0.059 | 2.94 ± 0.055 | 2.88 ± 0.034 | 3.04 ± 0.05 |
| NVPGVETANVASLNLLQ [RPL4A] | 2.71 ± 0.053 | 3.05 ± 0.055 | 2.86 ± 0.044 | 2.87 ± 0.041 |
| NVSLIKIEGVATPQEAQ [RPL33B] | 2.76 ± 0.07 | 2.78 ± 0.096 | 2.92 ± 0.074 | 2.61 ± 0.055 |
| NVTMIDDLIHFTLKQWN [COR1] | 2.49 ± 0.14 | 2.89 ± 0.16 | 2.79 ± 0.081 | 2.74 ± 0.099 |
| NVVPYHRNTSDYYYEDA [SWI1] | 2.85 ± 0.085 | 3.13 ± 0.075 | 3.03 ± 0.08 | 3.08 ± 0.055 |
| NYAMTRNILHNTVPQVT [SRB5] | 1.7 ± 0.055 | 2.15 ± 0.061 | 1.66 ± 0.08 | 1.74 ± 0.038 |
| NYHPMNIDETSDEVSRG [SMC4] | 3.17 ± 0.082 | 3.17 ± 0.064 | 3.23 ± 0.054 | 3.14 ± 0.041 |
| NYIENMNEMCKKINAKE [RPN8] | 2.84 ± 0.045 | 3.07 ± 0.059 | 3.12 ± 0.043 | 3 ± 0.039 |
| NYKQLTLVGGGAKITPE [RRP43] | 1.86 ± 0.11 | 1.94 ± 0.11 | 2.22 ± 0.18 | 2.01 ± 0.15 |
| NYLKYLEYWCNPPYSQC [SOH1] | 2.14 ± 0.052 | 2.25 ± 0.048 | 2.18 ± 0.063 | 2.28 ± 0.036 |
| NYLLKRNEDARRNLRYG [RPO31] | 3.35 ± 0.1 | 3.41 ± 0.094 | 3.51 ± 0.12 | 3.56 ± 0.056 |
| NYLRQQCNYSSLVFNRK [PRE5] | 2.71 ± 0.17 | 2.94 ± 0.11 |  | 2.75 ± 0.088 |
| NYNRIAKICALLFFNFS [NUT1] | 1.89 ± 0.048 | 1.8 ± 0.047 | 1.37 ± 0.082 | 1.61 ± 0.031 |
| PAELEGLLDLERVIVVT [FAS2] | 2.38 ± 0.1 | 2.11 ± 0.064 | 1.78 ± 0.17 | 1.77 ± 0.11 |
| PALLRPGRLDRKIEFPS [RPT3] | 3.2 ± 0.11 | 3.08 ± 0.11 | 3.07 ± 0.11 | 3 ± 0.066 |
| PAMAMEDLKNFIFQIIE [SRB8] | 2.62 ± 0.065 | 2.9 ± 0.074 | 2.73 ± 0.078 | 1.71 ± 0.05 |
| PASNILRRTTQRVFDET [YDL116W/NUP84] | 2.66 ± 0.13 | 2.66 ± 0.061 | 2.77 ± 0.13 | 2.62 ± 0.1 |
| PAWRVWLNFLRGTIPLL [PRP8] | 2.38 ± 0.089 | 1.88 ± 0.071 | 1.33 ± 0.1 | 2.96 ± 0.083 |
| PDFLSKYSAITSSIFQE [NUT1] | 1.88 ± 0.041 | 2.05 ± 0.042 | 2.05 ± 0.06 | 2 ± 0.033 |
| PDLNIDRNNSTNQIFQS [SIN4] | 3.1 ± 0.29 |  | 2.7 ± 0.21 | 2.19 ± 0.15 |
| PDTSNEICDLAYQYVRA [SRB2] | 2.83 ± 0.046 | 2.93 ± 0.04 | 2.95 ± 0.046 | 3 ± 0.041 |
| PDYYMIIKYPVAFDNIN [SNF2] | 2.78 ± 0.14 | 2.08 ± 0.12 | 1.97 ± 0.12 | 2.44 ± 0.15 |
| PEDLNSLYIYYLIKLLG [SIR2] | 2.07 ± 0.053 | 2.15 ± 0.05 | 2.18 ± 0.064 | 1.95 ± 0.056 |
| PEEATTIFSVMVEWLES [PRP8] | 1.76 ± 0.076 | 1.26 ± 0.093 | 1.28 ± 0.14 | 1.77 ± 0.13 |
| PEIDNLDDLVVLKKKNI [RRP6] | 2.37 ± 0.067 | 2.15 ± 0.052 | 2.59 ± 0.089 | 2.79 ± 0.066 |
| PEIGNRKINLFYLYMLV [SWI1] | 1.54 ± 0.1 | 1.32 ± 0.054 | 1.1 ± 0.22 | 2.22 ± 0.094 |
| PENITKREASRGFFDIL [MCD1] | 3.1 ± 0.08 | 3.01 ± 0.082 | 3.13 ± 0.062 | 3.21 ± 0.058 |

| Sequence | protein stability index (doa10∆) | protein stability index (pdr5∆) | protein stability index (san1∆) | protein stability index (ubr1∆) |
| --- | --- | --- | --- | --- |
| PEREVLVRELYQWRDLI [RRP6] | 2.91 ± 0.057 | 2.78 ± 0.07 | 2.67 ± 0.066 | 2.58 ± 0.049 |
| PERWLPLRDRSTYRPKK [SRP72] | 3.29 ± 0.2 | 3.05 ± 0.22 | 2.89 ± 0.2 | 3.64 ± 0.28 |
| PEYYSTARVMGGLKNGV [DIS3] | 3.15 ± 0.093 | 3.24 ± 0.1 | 3.23 ± 0.052 | 3.01 ± 0.082 |
| PFFARFKLRIQTTEGYD [RPB11] |  | 1.37 ± 0.12 | 1.37 ± 0.26 |  |
| PFQVSSFVKETKLHSGD [SRB8] | 2.96 ± 0.088 | 2.77 ± 0.082 | 2.8 ± 0.085 | 2.91 ± 0.061 |
| PFSEGVTFSVMPPKKSW [SMC4] | 2.48 ± 0.091 | 2.03 ± 0.074 | 2.2 ± 0.11 | 2.57 ± 0.077 |
| PFTASQSNINTNAPLRT [YIL149C/MLP2] | 2.37 ± 0.12 | 2.49 ± 0.089 | 2.11 ± 0.075 | 2.08 ± 0.053 |
| PFTNEAHMWPRVHDQPL [POP3] |  | 1.36 ± 0.24 |  |  |
| PFVLAENMWPFSYQEVE [CDC53] | 1.6 ± 0.037 | 1.9 ± 0.04 | 1.56 ± 0.051 | 2.25 ± 0.028 |
| PGAKPLQVGDVVSTTAV [FAS1] | 2.51 ± 0.075 | 2.42 ± 0.086 | 2.48 ± 0.077 | 2.66 ± 0.065 |
| PGGQAALRALARSGLRI [RPS14A] | 2.15 ± 0.032 | 2.35 ± 0.029 | 2.21 ± 0.04 | 1.92 ± 0.022 |
| PGNNIPYMNHKNTSSMD [GAL11] |  | 2.11 ± 0.14 | 2.16 ± 0.21 |  |
| PGNRNADNVDKILEQFE [FAS2] | 1.63 ± 0.11 | 1.53 ± 0.18 | 2.5 ± 0.19 | 2.5 ± 0.087 |
| PGPYPNEQAARAANQGA [CYT1] | 2.35 ± 0.053 | 2.68 ± 0.045 | 2.33 ± 0.059 | 2.3 ± 0.05 |
| PGSRASSRFIKGGSLYG [RPN2] | 2.19 ± 0.12 | 1.92 ± 0.11 | 1.45 ± 0.11 | 2.14 ± 0.069 |
| PHLIIQNHNSKSTDNSA [IRR1] | 2.71 ± 0.047 | 2.88 ± 0.057 | 2.81 ± 0.05 | 2.78 ± 0.034 |
| PHLLKQGLAMVEKYAPD [RRP42] | 2.02 ± 0.13 | 2.35 ± 0.11 |  |  |
| PHTVIRRKTTKQNSSSD [YDL088C/ASM4] | 3.14 ± 0.089 | 3.05 ± 0.079 | 3.01 ± 0.068 | 2.9 ± 0.043 |
| PIFNYIFTEKIYKSIFN [YJL039C/NUP192] | 1.33 ± 0.034 | 1.46 ± 0.04 | 1.41 ± 0.074 | 1.16 ± 0.039 |
| PIGRHEELLAQYESQAP [SWP82] | 2.35 ± 0.057 | 2.25 ± 0.063 | 2.07 ± 0.1 | 2.07 ± 0.037 |
| PINLENNDGSYGLFLKY [SRB8] | 3.07 ± 0.11 | 2.34 ± 0.075 | 2.18 ± 0.14 | 1.81 ± 0.069 |
| PINLPPQIAQLPLATQQ [SNF5] | 2.15 ± 0.071 | 2.49 ± 0.059 | 2.46 ± 0.089 | 2.27 ± 0.053 |
| PISISNAPTFNPKYDTS [YAR002W/NUP60] | 3.03 ± 0.076 | 3.08 ± 0.068 | 2.71 ± 0.059 | 3.07 ± 0.06 |
| PISKHSKQAIYTRATAS [RPS25A] | 1.86 ± 0.055 | 1.86 ± 0.044 | 1.64 ± 0.08 | 1.81 ± 0.038 |
| PKDTSAATMTSAPPPAL [RGR1] | 2.49 ± 0.1 | 2.59 ± 0.1 | 2.51 ± 0.069 | 2.85 ± 0.097 |
| PKELGGLGMISASHILI [PRP8] | 2.36 ± 0.072 | 2.67 ± 0.053 | 2.14 ± 0.084 | 2.41 ± 0.047 |
| PKFDVGALMALHGEGSG [RPS1A] | 2.01 ± 0.17 | 2.26 ± 0.092 | 2.23 ± 0.16 | 1.57 ± 0.089 |
